Drawing on article PMC12644734, this text covers stoichiometry N for one molecule.

In this assay the target is T1, SARS-CoV M protein (SARS-CoV), P59596.
T1 chain: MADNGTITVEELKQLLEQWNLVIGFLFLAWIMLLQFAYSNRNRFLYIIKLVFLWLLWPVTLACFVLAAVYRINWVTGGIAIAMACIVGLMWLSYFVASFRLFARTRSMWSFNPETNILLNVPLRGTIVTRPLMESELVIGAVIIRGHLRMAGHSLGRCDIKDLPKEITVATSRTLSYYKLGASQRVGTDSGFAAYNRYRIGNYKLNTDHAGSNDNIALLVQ
As to the kind of experiment: cryo-EM structure. Conditions: remark: other sources report otherwise.

B1: SARS-CoV M protein, P59596 1-221 (natural protein)
chain: T1 chain
In the case of B1, the stoichiometry N (as a rule, the number of molecules, sites or subunits per partner or assembly) came out at 2.
